A short description of the data set: label from the status in PepcDB records.

Drawing on a protein production outcome set (Wang et al. 2014), this text covers protein production for 17 sequences.

Turning to “MQDASAWMLALAGLCVGVTAGFFVRLARLCSFGAVEDALMGGDTRRLRIFGLALGIALLGTQALVIAGQLDPGQSNYTAPALPLISIAIGSVLFGIGMAFVGTCGFGSLVRLGGGDLRSFVVILVLGGAAYATLRGMFSGFRITVLERFAITMPEGVNTDLAALTQHLSGIDLRAVIAALGGGLLCLIALGDKRLRRTPRLLAAGVALGLLTVVGWLATTKLADPFAGPVHPQSLTFVSTVGKAVYAGLLNVANFADFGVGTVFGVIAGAFIAAWHTDELRWEAFDDDHEMRRHVAGAALMGFGGILTGGCTIGQGITAGSVMALSWPIAIVGMMFGARIGIAVLVDGSPRELIRRRFDAWRELLQRRRAPALTAANRPNHRPAAPSDAPRPTAPHSLAE”, the protein production result is “failed”.

Turning to “MQDDVLAKELADKTSKADIDTDAQTVTRLIADEIDTAKQAAESDITQRSRFIETLRQYAGGGSAMAALITRLGYSKADILHLAELWAQERDPELNFIVGSLYDSGFVEVDDKEARSLQWFRKAAELGQADAQNILGYFYLNGKRGIKRDLQKGGQWYELAAAQGNVDALINLGEIYYSGTQVPLDYARAFEFFERAAKMGKSRALNYLAWMYTNGQFVDTDCRKAAELFAQGRTSFADDPHFQVTCEKDRQARAEAVAMREKNLPKLTFNRDRVFGASQGSGYACELEFVVKTDRVSSIENLRVSLALKNKAGAMSQQVIAFEPFGLNTQNRNLQGYKSDTLRESTLQPIYQPEFCDVDSYSVTAVTGIVNGKEMDILKAGIFL”, the protein production entry was “failed”.

For the sequence “MQDEYYMARALKLAQRGRFTTHPNPNVGCVIVKDGEIVGEGYHQRAGEPHAEVHALRMAGEKAKGATAYVTLEPCSHHGRTPPCCDALIAAGVARVVASMQDPNPQVAGRGLYRLQQAGIDVSHGLMMSEAEQLNKGFLKRMRTGFPYIQLKLGASLDGRTAMASGESQWITSPQARRDVQLLRAQSHAILTSSATVLADDPALTVRWSELDEQTQALYPQQNLRQPIRIVIDSQNRVTPVHRIVQQPGETWFARTQEDSREWPETVRTLLIPEHKGHLDLVVLMMQLGKQQINSIWVEAGPTLAGALLQAGLVDELIVYIAPKLLGSDARGLCTLPGLEKLADAPQFKFKEIRHVGPDVCLHLVGA”, the protein production entry is “not failed”.

For the sequence “MQDFDFSFNPKACEGCGAKCCVGESGYIFLNIQEMQQISAFLKLELEEFSQKYVKKVGYKFSLLEKDAKELGLACVFLDLETKKCQIYSVRPKQCQTFPFWEGVKTFSKEQKEAFCQSCPGITQKTKETKVR”, the protein production result is “failed”.

Consider “MQDFGDNSGRAPAAGRSWRNTPSSFGVVAIAFHWTIAVLFVAQLALGYLMSRDSIDPVLQFNFFQYHKSIGFLVLALAVPRCLWSVFSRKPRAVDGEGPVSRFAARVAHSALLFLTLAVPLAGWAVASTSPLQIPSYVFDLVVVPGLPMTISDQAEAFWSDVHATLAYLAAVIVLLHVIAALWHHFIRRDPTLRRMLPLPDTTDNSRREISSGQ”, for which the protein production result is listed as “failed”.

For “MQDIVRKTIDNLNRNHMAGYYTQSIQQLHELLYRLMPEGQTVGCGDSVTLEQSGVYEYVRNHSYNFLDKYRTGLNREEKREIYLQNFRADTFLTGINAVTIDGKLFNIDGNGSRVAPIIYGPKQVIAVVGTNKIVKSVDDAIWRTRQIAAPLDARRLAKETPCVKLAKCIDCHHSQRICNDFVLITGQFEKGRIKVIFIEGDYGY”, the protein production result is listed as “failed”.

As for “MQDLGIAFQTAVGDSGGNLDGRTPLPSNDWLMKRNCSLTPRQAGWFYFSIVCFSTAIAVFFAVWLGAWLVLPFAGLELLGLGIALLAYARHAADYERVSVTDGMLVVETASASRITREVFNPRWVRVELGESFRAPVVLRSDKRSVQVGLYLDPYRRRKFAQELAVALQRV”, the protein production result is listed as “failed”.

Take “MQDQTEAVRFLSDPATHGGAPVERVETHGAFVFLAGSQAFKIKRAVRYDYMDLSTLALRHRMLARELELNRPAAPAIYRDLVAVTREPEGLALGGPGEPVEWVLRMWRFPAEDELSAVAERGALDDRLAARLGRSLAAYHRAAPVRSSDGAALVEAILDELGRVFAGMEDGLGAERIARFGTQARDMLARTKPLLRARSEAGRVRRGHGDLHLRNLVLIEGEPVPFDALEFDETLGTCDILYDLAFLLMDLDHRGLTRAAGIALAAWLFEMRGDEDGGLAALPLFLAVRAAIRGMVLVQTDAARGAPGHSDAEARGLLDEALRALSPPPPRLLAIGGVSGSGKTVLAAALAPRLGLPPGAIHLRSDLERKSRAGVPTDRRLGGAAYGEDARHAVYGQMLARAGAILAAGWPVILDATFLDPADRAAARALAAERGVPLEGLWLEAPPDLLVARVSTRRSDASDADEAVVRAQLARQPRAGDWRTLDTGRPPEEVAHSACRALGLD”: the protein production entry is on record as “failed”.

Turning to “MQDRCPHQDHRSIPTIMPDLEPDTVSALEAPEFAPAQFVRWFREVAPYVHAFRGKTFVVAFGGELVQAGALNVLVQDLSLLSALGIHLVLVHGSRPQVNEQLRLKGYTQQFGRGLAPTDPAALECAKEAAGEIRLDIEAAFSQGLPNTPMSHSHIRVLSGNFVTARPTGVVDGIDYKHTGQVRKIDVDALKFAIEQGSVVLLSPLGFSPTGDAFNLAMEDLATSVAVALRAEKLIFLSGEPGVLDGNGAVDTELARVDADALLARGELDEDTTYFLQHASLAVKRGVARAHLVPYALDGSVLLEIFTHDGVGTMVVEDTLDDLRAATLDDVGAILSLIEPLETDGTLVPRPRSAIERDVERFTVLEHDGVIYGCAALYPFPEDQMAEMACLIVHPEWQGSGEGEILLRHMESRARASGARRLFVLTTRTSHWFMKRGFVRGGVADLPRDKQNNYNRSRNSLVFIKKL”, the protein production entry is reported as “failed”.

As for “MQDSSSQHEPLWDRFGDLTVWKRGDQRAPHKPLLILYALGRLAQGDRWLRFSDIEEDLTDLLIEFGPPRQSHHPEYPFWHLRSDGVWVVPEADVLEMRQSASNPPKTELREKEARGGFSDDIHQAFRNDSELRRGIARLLLSSHFPTSLHEDIATAVSLDLEGAASERRDPEFRTQVLQAYQYRCAICGFNLQLGMSGTPIGVEAAHIKWKQARGPDEISNGIALCALHHKMLDKGALHVTEDLRLFVSEAVHGSQPHLSRLQDRHGNRIHTPQRETYYPNGEVVTWHVNEVFRGPPRV”, the protein production result is given as “failed”.

On to “MQEKIHWITNLRGIACMMVVMIHSTSWYITHPHAITLLQWDIANLLNSASRVSVPLFFMISGYLFFGERSAQPRHFWRIGLCIAFYSALSLLYITLFTHINVELSLKNLLQKPVFYHLWFFFAITVIYLLSPLLQVKSTSSTMLLALMAILGILANPNMVSVKAAGIEWLPVNLYINGDTFYYVLYGVLGRAIGTLDTDKKWLTPLCAALFIAAVWVISRGTLHELRWRGDFGDTWYLYCGPAVFVCAVTLLTLAKNWLNARPLPGIACIARHSLGIYGFHALIVHALRASHLELSRWPLLDIVWIFSAALLGSLLLSGLVQRIDSRRLVS”, for which the protein production entry is “failed”.

On to “MQELSPAELGEQVQDDDGPLVLDIRHEEDFQEWHIPGSRNVDVYDELTDDPEQAIEPLDDLPSDEQIVTVCAAGVVSQTATAVLRELGYDAVTLTDGMNGWSRVHRHAELPVDVDGTLVQVARPGKGCLSHVLVSDGEAAVFDPSHYLNEYDTVLDEYDAELVGVFDTHAHADHVSGAADLADRHDVPYYLHQKDALAVDATPLEDGQTVTVGRLDIEVIHTPGHSEGSVSFDVEGAALLTGDTLFHDSVGRVELGVEAGIEDADVEGNAATLYESLQRLLDRPDDALVLPAHDPGSPEPPVAATLAEVRERNDDLGRDREAFVEELASDIPDHPPNFERVKRTNVGQESVPEEELAELELGPNNCAAE”, for which the protein production result is “failed”.

Take “MQEQRQQLLRSLEALIFSSEEPVNLQTLSQITAHKFTPSELQEAVDELNRDYEATGRTFRIHAIAGGYRFLTEPEFADLVRQLLAPVIQRRLSRSMLEVLAVVAWHQPVTKGEIQQIRGASPDYSIDRLLARGLIEVRGRADSPGRPLQYGTTEVFLDLFHLPSLKDLPKLREIKEILQEHEEQQYLAADGDLPVAADEDEKPRMERIE”: the protein production entry was “not failed”.

As to “MQEQWGYVAISFIIGIAIAFSSSLLLIVFCLFLNVFFCLYRTSRKTFIFCIVACFSSVIYTSYVQTWNKPLGESYGVTRGVIQNTPLVNGDRLSFQFEDQNKNIVQLSYRIKSALEKKKMQQLYAGISCVFEGERKEPETARNFHGFNYRDYLYKQHIHFTFEATYISECYKTSLSLTQWILLLRQQAISKVTEMFPEQSGAFMNALLFGDRQQMTFEVEEQYQQFGLVHLLAISGSHIVLLMVIVYFILLRSGATREVATICLIVCIPLYMVLAGASPSVIRASITGVLMLIAFMCSIRLSSLDALSVTAICMLIYDPYLVFNIGFQFSFVGSFALLLSAPLLLGSSNGVIRNSIYISIISQLVSTPILLYHFGYFSPYSILLNLLYVPFLSIIVLPCSIIILLCMPIVPFLAKGFADVLSIGLSMSNDFLSYCESLPFTQLIFGETPLNLVAVYCASIVSILMVWERRAPKKIVCIVASVFLFISTCHYIYPYFRGSGSVTFIDVGQGDAILIRLPYDKGIYLIDTGGTLRVNKEEWQQKKHEFSVGNDVLIPFLQKEGIKTIDKLIVTHGDADHIGAAQELLSYIPVKEVVFGRKGKDAVLEKVVKKQALEKEMKITEVGEGASWSVNEAEFFVLAPKGKEKSENNASIVIWAKFGGLKWLFTGDLEEEGEKILVEAYPDLQVDVLKVAHHGSNTSSIEPFLNVMQPRVAIISVGKQNRYGHPHKEVIERFEKMGSAIWRTDKQGAISYVFKGENGTFKSKITYDKTHNR”, the protein production result is recorded as “failed”.

Take “MQESGCRLEHPSATKFRNHVMEGDWDKAENDLNELKPLVHSPHAIVVRGALEISQTLLGIIVRMKFLLLQQKYLEYLEDGKVLEALQVLRCELTPLKYNTERIHVLSGYLMCSHAEDLRAKAEWEGKGTASRSKLLDKLQTYLPPSVMLPPRRLQTLLRQAVELQRDRCLYHNTKLDNNLDSVSLLIDHVCSRRQFPCYTQQILTEHCNEVWFCKFSNDGTKLATGSKDTTVIIWQVDPDTHLLKLLKTLEGHAYGVSYIAWSPDDNYLVACGPDDCSELWLWNVQTGELRTKMSQSHEDSLTSVAWNPDGKRFVTGGQRGQFYQCDLDGNLLDSWEGVRVQCLWCLSDGKTVLASDTHQRIRGYNFEDLTDRNIVQEDHPIMSFTISKNGRLALLNVATQGVHLWDLQDRVLVRKYQGVTQGFYTIHSCFGGHNEDFIASGSEDHKVYIWHKRSELPIAELTGHTRTVNCVSWNPQIPSMMASASDDGTVRIWGPAPFIDHQNIEEECSSMDS”: the protein production entry is “failed”.

On to “MQESVVRVDYDSLETCKNFKPSVGTELIVLEKDIAHARFKGNESMVYEENFVHAGFVLIACNYAALCALNKRHSVVVSNNINFYAPLELNQEALIKAQVIQDGVKKAEIKIEAFVLDIQVLEGMIEIVVFDKKPFKFNFKEE”, for which the protein production entry is listed as “failed”.

In the case of “MQETDNLLKTLNVKSLLEALLVYTPKGYKDLNLLERFETGLSGVLEVGILEKRNYAKVLKIFAYSKRFYKNLELVFFNYSAFHHSQFKTGESLFIYGKLEQSSFNQAYIINTPKIITKFGKISLIFKKVKNHKKIQENLQKLISLENLKKEGVKENIAHLLLEIFFPTPHFVKDFETNKNFPSQHLNALKYIEMLFYMKNLERKKLQFGAKIACPNNNERLKAFIASLPFKLTRDQQNAIKEIQNDLTSSIACKRLIIGDVGCGKTMVILASMVLTYPNKTLLMAPTSILAKQLYNEALKFLPPYFEVELLLGGSYKKRSNHLFETITHVVIGTQALLFDKRDLNEFALVITDEQHRFGTKQRYQLEKMASSKGNKPHSLQFSATPIPRTLALAKSAFVKTTMIREIPYPKEIETLVLHKRDFKIVMEKISEEIAKNHQVIVVYPLVNESEKIPYLSLSEGASFWQKRFKKVYTTSGQDKNKEEVIEEFRESGSILLATTLIEVGISLPRLSVMVILAPERLGLATLHQLRGRVSRNGLKGYCFLCTIQEENERLEKFADELDGFKIAELDLEYRKSGDLLQGGEQSGNSFEYIDLAKDENIIAEVKRDFLKAASVSRGTFEN”, the protein production result was “failed”.
